These results are taken from US20150020238.

The target in this series is EGFP-hTNF-α fusion protein comprising the enterokinase-recognizing sequence, P01375.
Chain of EGFP-hTNF-α fusion protein comprising the enterokinase-recognizing sequence, P01375 (P01375 other isoform, or with tags, fused parts or gaps): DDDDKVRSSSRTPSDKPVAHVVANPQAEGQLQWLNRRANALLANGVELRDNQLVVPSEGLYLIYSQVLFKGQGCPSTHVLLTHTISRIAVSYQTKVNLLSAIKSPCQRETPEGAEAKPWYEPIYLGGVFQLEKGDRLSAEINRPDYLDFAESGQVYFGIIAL

B1: human enterokinase light chain protein produced in transformed rice suspension cells (protein)
chain: IVGGSNAKEGAWPWVVGLYYGGRLLCGASLVSSDWLVSAAHCVYGRNLEPSKWTAILGLHMKSNLTSPQTVPRLIDEIVINPHYNRRRKDNDIAMMHLEFKVNYTDYIQPICLPEENQVFPPGRNCSIAGWGTVVYQGTTANILQEADVPLLSNERCQQQMPEYNITENMICAGYEEGGIDSCQGDSGGPLMCQENNRWFLAGVTSFGYKCALPNRPGVYARVSRFTEWIQSFLH
On to B1, for which the endopeptidase activity entry was “exhibited the activity of the human enterokinase light chain protein, i.e., recognizing and cleaving the DDDDK amino acid sequence”.
